Data as given in patent publication US20220403025A1.
pKd: −log10 of the molar value.

Molecular target: L1 (DV1-GV4) antigen: soluble heterodimeric γδ TCR in leucine zipper format (TRDV1/TRGV4) (human)
Assay: SPR (MASS-2), IgG captured via protein G (100 nM for TS8.2), L1 as analyte, steady-state 1:1 fit

L1 (DV1-GV4) antigen: soluble heterodimeric γδ TCR in leucine zipper format (TRDV1/TRGV4) (human), sequence (main, as listed by the source): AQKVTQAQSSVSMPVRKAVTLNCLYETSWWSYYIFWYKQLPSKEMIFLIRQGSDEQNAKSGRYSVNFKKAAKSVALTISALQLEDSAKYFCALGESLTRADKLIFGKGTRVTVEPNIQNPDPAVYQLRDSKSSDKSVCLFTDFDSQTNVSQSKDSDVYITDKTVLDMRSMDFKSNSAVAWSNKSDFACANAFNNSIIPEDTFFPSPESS

pKd: 7.36
Substance: TS8.2 (commercial anti-Vδ1 antibody; Human TCR Vδ1 purified mAb, ThermoFisher TCR1730)
